The record followed here is doi:10.1101/2025.05.16.654433.

First the molecules themselves.
B1: APE-1::GFP::3xflag (endogenous APE-1 tagged with 3xflag and GFP) [C. elegans] / HaloTag::GSP-2 (endogenously HaloTagged GSP-2 labeled with JF646) [modified: far-red dye JF646 on the HaloTag; far-red dye JF646 on the HaloTag] … (parent)
chain 1: MVTTSSGGGIGYPANNGVTQVSLIHSSDSVRTVSTAPIYRPTSSMASTMAHKSSTAPFISANQRMSKPPVRVVAQPPPPHPQALSQQYHQQNPMMMYSAPNTRPHVIPTMQVQPTMAAQIKRNNPVNAQFQNPSEMIADYGVKPQSVEMVQRVRAVRRQVADEETELRRLRELEHETAQLQNKNYGRERELNVQGSMLKEAQLELRNASMRAQSLNKHLEEMYRRRQTAAAAALVEQRKMQQHQILLARAANQVSTQEVIRPRASVEPFQVNNTQQQQPSPQMMKSEEFSEKRDLNGQTGSYDAIDGSGDHQKIPTEPSYLAPCKENQQKYSELSKMASTDPHSNHSSPSTSSQKAPTLITFSPPSFEQKINSSTMTRDSPFVERPTSFGDSLDESRLRSGKTDLVSLRSDSLKATKRRSWAASEGTSMSEAEMIHRLLDEQRRGRSHFIPQLPTSQEEPSAITSETYAEEVVNSESKQVATSSDSTNNLELPTEQMVLGSDTTTEEDASSCSTRSDDGQNLEMEVAIERRTVKGILRRPNEKMNKGRIEFDPLALLLDAALEGELDLVRSSASKLTDVSQANDEGITALHNAICAGHYEIVRFLIENDADVNAQDSDGWTPLHCAASCNNLPMVRQLVEGGGCVLASTLSDMETPVEKCEEDEDGYDGCLKYLSAAHNSTGSINTGKVYAAYGYEAAFEDELSFDAGDELTVIEKDKVDKNWWTCEKNNGEKGQVPRTYLALYPSLKYRKKLNFVMFDLPLESNNNVE
chain 2: MDVEKLNLDNIISRLLEVRGSKPGKNVQLTESEIKGLCQKSREIFLSQPILLELEAPLKICGDVHGQYYDLLRLFEYGGFPPESNYLFLGDYVDRGKQSLETICLLLAYKIKYPENFFLLRGNHECASINRIYGFYDECKRRYNIKLWKTFTDCFNCLPVAAIIDEKIFCCHGGLSPDLQSMEQIRRIMRPTDVPDQGLLCDLLWSDPDKDVTGWGENDRGVSFTFGPEVVAKFLHKHDLDLICRAHQVVEDGYEFFAKRQLVTLFSAPNYCGEFDNAGSMMTVDETLMCSFQILKPADKKKYPYGAGGVGSNRPVTPPRNAPAAQPKKGAKK

Variants of B1 are the subject of one assay. The assay can be described thus: single molecule photobleaching analysis (TIRF microscopy) on anti-flag functionalized coverslips. The note with it: with HaloTag::GSP-2 (endogenously HaloTagged GSP-2 labeled with JF646) [modified: far-red dye JF646 on the HaloTag, whole worm lysates, HaloTag::GSP-2 labeled with JF646, p=0.531 vs APE-1, read off a plot.
For the variant chain 1 H591Y, the screen value was found to be 38%.

Still in this assay, the particulars now being: with HaloTag::GSP-2 (endogenously HaloTagged GSP-2 labeled with JF646) [modified: far-red dye JF646 on the HaloTag, whole worm lysates, HaloTag::GSP-2 labeled with JF646, p = 0.008 vs APE-1, read off a plot.
For the variant chain 1 N583K, the screen value was found to be 34%.
